Measured values taken from PMC10802454.

Molecular target: AriA (Escherichia coli strain B185)
Assay: cryo-EM structure

AriA (natural protein)
stoichiometry N: 6
